Assay results as given in US20090004183A1 (published 2009).

B1: mAb 3E7 (antibody, mouse IgG1, V domains shown)
VH: EVQLQESGPSLVKPSQTLSLTCSVTGDSITSDYWNWIRKFPGNKLESMGYITYSGTTYYNPSLKSRISITRDTSKNQYYLQLNSVTSEDTATYYCARGVDYEPSYYFDYWGQGTTLTVSS
VL: DIQMTQTTSSLSASLGDRVTISCSASQGISNYLNWYQQKPDGTVKLLIYYTSSLHSGVPSRFSGSGSGTDYSLTISNLEPEDIATYYCQQYSNLPWTFGGGTKLEIK
notes: also called mouse IgG1 mAb 3E7; A1488 mAb 3E7
B2: mAb H17 (antibody, V domains shown)
VH: EVQLQESGPSLVKPSQTLSLTCTVSGDSITSDYWNWIRQAPGKGLESMGYITYSGTTYYNPSLKSRVTISRDTSKNQYYMELSSLRSEDTATYYCARGVDYEPSYYFDYWGQGTLVTVSS
VL: DIQMTQSPSSLSASVGDRVTITCSASQGISNYLNWYQQKPGKAPKLLIYYTSSLHSGVPSRFSGSGSGTDYSLTISSLQPEDIATYYCQQYSNLPWTFGQGTKVEIK
notes: It is a chimeric, de-immunized form of 3E7 with human gamma1 and kappa constant regions, expressed in NS0 cells; also called H117; deimmunized chimeric 3E7

Target: T1, C3b deposited on zymosan or Sepharose 4B (human, UniProt P01024 23-667; P01024 749-1663, limits assumed, covalently deposited on zymosan A or Sepharose 4B by opsonization in normal human serum)
T1 construct: The whole C3 entry is named; The deposit may include iC3b; also called C3b-opsonized zymosan; C3b-zymosan
Assay: flow cytometry on zymosan opsonized in 50% NHS
Procedure: After 30 minutes, the reactions were quenched with EDTA, washed and samples without the mAbs were probed with the respective A1488 mAbs.

T1 sequence (P01024 23-667 limits assumed, chain 1 of 2): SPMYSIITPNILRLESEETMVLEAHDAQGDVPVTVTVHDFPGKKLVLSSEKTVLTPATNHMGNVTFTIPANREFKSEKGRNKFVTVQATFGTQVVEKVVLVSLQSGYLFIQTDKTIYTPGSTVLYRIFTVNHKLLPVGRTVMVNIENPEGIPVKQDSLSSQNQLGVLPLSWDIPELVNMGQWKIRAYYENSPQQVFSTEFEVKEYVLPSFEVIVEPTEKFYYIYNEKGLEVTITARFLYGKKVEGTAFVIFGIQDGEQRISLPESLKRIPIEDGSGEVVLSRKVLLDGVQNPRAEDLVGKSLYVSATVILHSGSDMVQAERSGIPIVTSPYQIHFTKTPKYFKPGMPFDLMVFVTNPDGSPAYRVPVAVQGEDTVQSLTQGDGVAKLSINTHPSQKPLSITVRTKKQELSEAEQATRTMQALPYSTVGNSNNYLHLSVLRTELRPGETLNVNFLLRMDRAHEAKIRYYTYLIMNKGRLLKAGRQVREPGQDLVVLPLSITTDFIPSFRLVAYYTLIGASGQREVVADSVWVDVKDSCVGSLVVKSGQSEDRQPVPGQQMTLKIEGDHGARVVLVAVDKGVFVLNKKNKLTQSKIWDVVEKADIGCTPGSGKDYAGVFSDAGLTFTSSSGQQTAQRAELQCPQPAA
T1 sequence (P01024 749-1663 limits assumed, chain 2 of 2): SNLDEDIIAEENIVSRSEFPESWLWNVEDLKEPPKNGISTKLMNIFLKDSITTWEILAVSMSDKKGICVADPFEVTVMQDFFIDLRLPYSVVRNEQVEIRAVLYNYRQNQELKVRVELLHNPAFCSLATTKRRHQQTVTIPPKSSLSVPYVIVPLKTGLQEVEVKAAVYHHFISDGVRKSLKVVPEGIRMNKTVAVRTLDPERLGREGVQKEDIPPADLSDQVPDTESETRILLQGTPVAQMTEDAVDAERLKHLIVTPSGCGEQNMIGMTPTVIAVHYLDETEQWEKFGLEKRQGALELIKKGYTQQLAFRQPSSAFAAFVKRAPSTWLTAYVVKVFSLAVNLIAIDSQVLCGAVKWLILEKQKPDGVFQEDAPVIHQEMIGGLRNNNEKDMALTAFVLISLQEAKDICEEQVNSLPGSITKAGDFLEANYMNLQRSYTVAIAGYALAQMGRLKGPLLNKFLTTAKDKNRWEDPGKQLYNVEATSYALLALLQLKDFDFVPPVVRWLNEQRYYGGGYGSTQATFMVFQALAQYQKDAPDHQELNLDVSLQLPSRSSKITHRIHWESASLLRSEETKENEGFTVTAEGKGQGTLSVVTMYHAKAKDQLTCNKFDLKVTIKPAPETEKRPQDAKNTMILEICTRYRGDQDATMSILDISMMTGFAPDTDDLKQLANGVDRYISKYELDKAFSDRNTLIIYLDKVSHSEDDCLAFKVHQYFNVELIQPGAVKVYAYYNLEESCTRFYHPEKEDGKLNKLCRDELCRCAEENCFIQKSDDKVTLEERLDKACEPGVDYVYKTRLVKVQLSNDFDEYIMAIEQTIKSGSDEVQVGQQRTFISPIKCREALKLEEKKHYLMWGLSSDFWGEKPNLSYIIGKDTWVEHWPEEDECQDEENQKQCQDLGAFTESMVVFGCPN

| Binder | fold increase in binding (probe added after opsonization versus present from the start) |
| --- | --- |
| B1 | 200 fold |
| B2 | 200 fold |
